Fewer inactive variants are shown than the library holds.
B1: glmS ribozyme (parent)
chain: AUAAAAGCGCCAGAACUACAGAAAUGUAGUUGACGAGGAGGAGGUUUAUCGAAUUUUCGGCGGAUGCCUCCAAA

Columns and labels:
Details in all cases: with glucosamine-6-phosphate
[1] = variants of: B1; assay: self-cleavage kobs at 40 uM GlcN6P; higher = faster cleavage; RNA array
Outline: (§1)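 kcat and KM were obtained from weighted Michaelis–Menten fits across concentrations of kobs values. Those came from one- or two-exponential decay fits to per-tile medians normalised to baseline and to non-cleaving reference variants. The variants were barcoded ribozymes transcribed in situ by E. coli RNA polymerase on sequenced MiSeq chips and tracked through a hybridised Cy3 probe at 37 °C, with 40 μM to 10 mM glucosamine-6-phosphate in HEPES/KCl/Mg(OAc)2 buffer flowed in.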

[2] = variants of: B1; assay: self-cleavage kobs at 160 uM GlcN6P; higher = faster cleavage; RNA array
Outline: as §1

[3] = variants of: B1; assay: self-cleavage kobs at 640 uM GlcN6P; higher = faster cleavage; RNA array
Outline: as §1

[4] = variants of: B1; assay: self-cleavage kobs at 2500 uM GlcN6P; higher = faster cleavage; RNA array
Outline: as §1

[5] = variants of: B1; assay: self-cleavage kobs at 10000 uM GlcN6P; higher = faster cleavage; RNA array
Outline: as §1

## AUAAAAGGGCCAGAACUACAGAAAUGUAGUUGACGAGGAGGAGGUUUAUCGAACUUUCGGCGGAUGCCUCCAAA
[1]
  self-cleavage kobs at 40 uM GlcN6P: < 1e-05 s⁻¹
[2]
  self-cleavage kobs at 160 uM GlcN6P: < 1e-05 s⁻¹
[3]
  self-cleavage kobs at 640 uM GlcN6P: < 1e-05 s⁻¹
[4]
  self-cleavage kobs at 2500 uM GlcN6P: < 1e-05 s⁻¹
[5]
  self-cleavage kobs at 10000 uM GlcN6P: < 1e-05 s⁻¹

## AUAAAAGGGCCAGAACUACAGAAAUGUAGUUGACGAGGAGGAGGUUUAUCGAAUUUUCGGCGGAAGCCUCCAAA
[1]
  self-cleavage kobs at 40 uM GlcN6P: < 1e-05 s⁻¹

## AUAAAAGGGCCAGAACUACAGAAAUGUAGUUGACGAGGAGGAGGUUUAUCGAAUUCUCGGCCGAUGCCUCCAAA
[1]
  self-cleavage kobs at 40 uM GlcN6P: < 1e-05 s⁻¹
[3]
  self-cleavage kobs at 640 uM GlcN6P: < 1e-05 s⁻¹
[4]
  self-cleavage kobs at 2500 uM GlcN6P: < 1e-05 s⁻¹
[5]
  self-cleavage kobs at 10000 uM GlcN6P: < 1e-05 s⁻¹

## AUAAAAGGGCCAGAACUACAGAAAUGUAUUUGACGAGGAGGAGGUUUAUCGAAUUUUCGGCGGAUUCCUCCAAA
[1]
  self-cleavage kobs at 40 uM GlcN6P: < 1e-05 s⁻¹

## AUAAAAGGGCCAGAACUACAGAAAUGUAGUUGACGAGGAGGAGGUUUAUCGAAUUUUCGGCGGAUGCGUCCAAA
[1]
  self-cleavage kobs at 40 uM GlcN6P: < 1e-05 s⁻¹
[2]
  self-cleavage kobs at 160 uM GlcN6P: < 1e-05 s⁻¹
[5]
  self-cleavage kobs at 10000 uM GlcN6P: < 1e-05 s⁻¹

## AUAAAAGGGCCAGAACUACAGAAAUGUAGUUGACGAGGAGGAGGUUUAUCGAAUUUUCGGCGGAUGCUUCCAAA
[1]
  self-cleavage kobs at 40 uM GlcN6P: < 1e-05 s⁻¹

## AUAAAAGGGCCAGAACUACAGAAAUGUAUUUGACGAGGAGGAGGUUUAUCGAAUUUUCGGCGGAUGCCUCGAAA
[1]
  self-cleavage kobs at 40 uM GlcN6P: < 1e-05 s⁻¹

## AUAAAAGGGCCAGAACUACAGAAAUGUAGUUGACGAGGAGGAGGUUUAACGAACUUUCUGCGGAUGACUCCAAA
[1]
  self-cleavage kobs at 40 uM GlcN6P: < 1e-05 s⁻¹
[2]
  self-cleavage kobs at 160 uM GlcN6P: < 1e-05 s⁻¹
[3]
  self-cleavage kobs at 640 uM GlcN6P: < 1e-05 s⁻¹
[4]
  self-cleavage kobs at 2500 uM GlcN6P: < 1e-05 s⁻¹
[5]
  self-cleavage kobs at 10000 uM GlcN6P: < 1e-05 s⁻¹

## AUAAAAGGGCCAGAACUACAGAAAUGUAGUUGACGAGGAGGAGGUUUAUCGAAUUUUCGGCGGAGGCAUCCAAA
[1]
  self-cleavage kobs at 40 uM GlcN6P: < 1e-05 s⁻¹
[4]
  self-cleavage kobs at 2500 uM GlcN6P: < 1e-05 s⁻¹

## AUAAAAGGGCCAGAACUACAGAAAUGUAGUUGACGAGGAGUAGGUUUAUCGAAUUUUCGGUGGAUGCCUCCAAA
[1]
  self-cleavage kobs at 40 uM GlcN6P: < 1e-05 s⁻¹
[2]
  self-cleavage kobs at 160 uM GlcN6P: < 1e-05 s⁻¹
[5]
  self-cleavage kobs at 10000 uM GlcN6P: < 1e-05 s⁻¹

## AUAAAAGGGCCAGAACUACAGAAAUGUAGUUGACGAGGAGGAGGUUGAUCGAAUUUUCGGCGGAUGCAUCCAAA
[1]
  self-cleavage kobs at 40 uM GlcN6P: < 1e-05 s⁻¹
[4]
  self-cleavage kobs at 2500 uM GlcN6P: < 1e-05 s⁻¹

## AUAAAAGUGCCAGAACUACAGAAAUGUAGUUGACGAGGAGGAGGUUUAUCGAAUUUUCGGCGGAUGCCUCCAAA
[1]
  self-cleavage kobs at 40 uM GlcN6P: < 1e-05 s⁻¹
[2]
  self-cleavage kobs at 160 uM GlcN6P: < 1e-05 s⁻¹
[3]
  self-cleavage kobs at 640 uM GlcN6P: < 1e-05 s⁻¹
[4]
  self-cleavage kobs at 2500 uM GlcN6P: < 1e-05 s⁻¹

## AUAAAAGGGCCAGAACUACAGAAAUGUAGUCGUCGAGGAGGAGGUCUAUCGAAUUUUCGGCGGAUGACUCCAAA
[1]
  self-cleavage kobs at 40 uM GlcN6P: < 1e-05 s⁻¹
[5]
  self-cleavage kobs at 10000 uM GlcN6P: < 1e-05 s⁻¹

## AUAAAAGGGCCAGAACUACAGAAAUGUAGUUGACGAGGAGGAGGUUUAUCGAAUUUUCGGCUGAUGCCUCCAAA
[1]
  self-cleavage kobs at 40 uM GlcN6P: < 1e-05 s⁻¹
[2]
  self-cleavage kobs at 160 uM GlcN6P: < 1e-05 s⁻¹
[3]
  self-cleavage kobs at 640 uM GlcN6P: < 1e-05 s⁻¹
[4]
  self-cleavage kobs at 2500 uM GlcN6P: < 1e-05 s⁻¹

## AUAAAAGGGCCAGAACUACAGAAAUGUAGUUGACGAGGAGGAGGUUUAUCGAAUUUUCGGCAGAUGCCUCCAAA
[1]
  self-cleavage kobs at 40 uM GlcN6P: < 1e-05 s⁻¹
[4]
  self-cleavage kobs at 2500 uM GlcN6P: < 1e-05 s⁻¹

## AUAAAAGUGCCAGUACUACAGAAAUGUAGUUGACGAGGAGGAGUUUUAUCGAAUUUUCGGCGGAUGCCUCCAAA
[1]
  self-cleavage kobs at 40 uM GlcN6P: < 1e-05 s⁻¹

## AUAAAAGGGCCAGAACUACAGAAAUGUAGGUGACGAGGAGGAGGUUUAUCGAAUUUUCGGCGGAUGCCUCCAAA
[1]
  self-cleavage kobs at 40 uM GlcN6P: < 1e-05 s⁻¹
[2]
  self-cleavage kobs at 160 uM GlcN6P: < 1e-05 s⁻¹
[3]
  self-cleavage kobs at 640 uM GlcN6P: < 1e-05 s⁻¹
[5]
  self-cleavage kobs at 10000 uM GlcN6P: < 1e-05 s⁻¹

## AUAAAAGGGCCAAAACUACAGAAAUGUAGUUGACGAGGAGGAGGUUUAUCGAAUUUUCGGCGGAUGCCUCCAAA
[1]
  self-cleavage kobs at 40 uM GlcN6P: < 1e-05 s⁻¹
[3]
  self-cleavage kobs at 640 uM GlcN6P: < 1e-05 s⁻¹
[4]
  self-cleavage kobs at 2500 uM GlcN6P: < 1e-05 s⁻¹
[5]
  self-cleavage kobs at 10000 uM GlcN6P: < 1e-05 s⁻¹

## AUAAAAGGGCCAGAACUACAGAAAUGUAGUUGACGAGGAGGAGGUUUAUCGAAAUUUCGGCGGAUGACUCCAAA
[1]
  self-cleavage kobs at 40 uM GlcN6P: < 1e-05 s⁻¹

## AUAAAAGGGCCAGAACUACAGAAAUGUAGUGGACGAGGAGGAGGUUUAUCGAAUUUUCGGCGGAUGCCUCCAAA
[1]
  self-cleavage kobs at 40 uM GlcN6P: < 1e-05 s⁻¹
[2]
  self-cleavage kobs at 160 uM GlcN6P: < 1e-05 s⁻¹
[3]
  self-cleavage kobs at 640 uM GlcN6P: < 1e-05 s⁻¹
[4]
  self-cleavage kobs at 2500 uM GlcN6P: < 1e-05 s⁻¹

## AUAAAAGUGCCAGGAUUACAGAAAUGUAGUUGACGAGGAGGAGGUUUAUCGAAUUUUCGGCGGAUGCCUCCAAA
[1]
  self-cleavage kobs at 40 uM GlcN6P: < 1e-05 s⁻¹
[5]
  self-cleavage kobs at 10000 uM GlcN6P: < 1e-05 s⁻¹

## AUAAAAGGGCCAGAACUACAGAAAUGUAGUAGACGAGGAGGAGGUUUAUCGAAUUUACGGCGGAUGCCUCCAAA
[1]
  self-cleavage kobs at 40 uM GlcN6P: < 1e-05 s⁻¹
[4]
  self-cleavage kobs at 2500 uM GlcN6P: < 1e-05 s⁻¹
[5]
  self-cleavage kobs at 10000 uM GlcN6P: < 1e-05 s⁻¹

## AUAAAAGGGCCAGAACUACAGAAAUGUAGUUGACGAGGAGGAGGAUUAUCGAAUUUUCGGCGGAUGCCUCCAAA
[1]
  self-cleavage kobs at 40 uM GlcN6P: < 1e-05 s⁻¹
[2]
  self-cleavage kobs at 160 uM GlcN6P: < 1e-05 s⁻¹
[3]
  self-cleavage kobs at 640 uM GlcN6P: < 1e-05 s⁻¹
[5]
  self-cleavage kobs at 10000 uM GlcN6P: < 1e-05 s⁻¹

## AUAAAAGGGCCAGAACUACAGAAAUGUAGUUGACGAGGAGGAGGUUUAUCGAAUAUUCGGAGGAUGCCUCCAAA
[1]
  self-cleavage kobs at 40 uM GlcN6P: < 1e-05 s⁻¹

## AUAAAAGGGCCAGAACUACAGAAAUGUAGUCGACGUGGAGGAGGUUUAUCGAAUUUACGGCGGAUGCCUCCAAA
[1]
  self-cleavage kobs at 40 uM GlcN6P: < 1e-05 s⁻¹
[4]
  self-cleavage kobs at 2500 uM GlcN6P: < 1e-05 s⁻¹

## AUAAAAGGGCCAGAACUACAGAAAUGUAGUUGACGAGGAGGAGGUUUAUCGAAUUAUCGGCGGAUGCCUCCAAA
[1]
  self-cleavage kobs at 40 uM GlcN6P: < 1e-05 s⁻¹
[3]
  self-cleavage kobs at 640 uM GlcN6P: < 1e-05 s⁻¹
[4]
  self-cleavage kobs at 2500 uM GlcN6P: < 1e-05 s⁻¹

## AUAAAAGGGCCAUAACUACAAAAAUGUAGAUGACGAGGAGGAGGUUUAUCGAAUUUUCGGCGGAUGCCUCCAAA
[1]
  self-cleavage kobs at 40 uM GlcN6P: < 1e-05 s⁻¹
[5]
  self-cleavage kobs at 10000 uM GlcN6P: < 1e-05 s⁻¹

## AUAAAAGUGCCAGACCUACAGAAAUGUAGUUGACGAGGAGGAGGUUUAUCGAAUUUUCGGCGGAUGCCUCCAAA
[1]
  self-cleavage kobs at 40 uM GlcN6P: < 1e-05 s⁻¹
[2]
  self-cleavage kobs at 160 uM GlcN6P: < 1e-05 s⁻¹
[3]
  self-cleavage kobs at 640 uM GlcN6P: < 1e-05 s⁻¹
